The record followed here is patent publication US7183387 (Genentech, dated 2007).

Holding throughout (experiment): ELISA, IgG:IgE hexamers on receptor-GST
In experiment [1] the target is T1, human FcγRIIA-R131 α subunit extracellular domain-6His-GST fusion (human, UniProt P12318 34-217).
T1 construct: also called FcγRIIA-Arg131; not shown: glutathione S-transferase (GST)
T1 sequence: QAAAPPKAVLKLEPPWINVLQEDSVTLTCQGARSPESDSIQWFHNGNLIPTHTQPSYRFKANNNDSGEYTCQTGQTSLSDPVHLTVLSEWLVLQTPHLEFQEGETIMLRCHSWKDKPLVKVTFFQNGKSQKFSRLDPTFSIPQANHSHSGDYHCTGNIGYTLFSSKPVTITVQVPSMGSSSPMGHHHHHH

Experiment [2] concerns the target T2, human FcγRIIIA-F158 α subunit extracellular domain-6His-GST fusion (human, UniProt P08637 17-208).
T2 construct: also called FcγRIIIA-Phe158; not shown: glutathione S-transferase (GST)

The target of experiment [3] is T3, human FcγRIIB α subunit extracellular domain-6His-GST fusion (human, UniProt P31994 43-217).
T3 construct: not shown: glutathione S-transferase (GST)
T3 sequence: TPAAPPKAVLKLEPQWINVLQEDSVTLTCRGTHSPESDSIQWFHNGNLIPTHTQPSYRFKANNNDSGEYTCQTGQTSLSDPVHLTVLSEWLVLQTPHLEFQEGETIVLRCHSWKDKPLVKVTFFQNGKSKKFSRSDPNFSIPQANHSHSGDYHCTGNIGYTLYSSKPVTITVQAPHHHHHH

T2 sequence (P08637 other isoform, or with tags, fused parts or gaps, form in doubt): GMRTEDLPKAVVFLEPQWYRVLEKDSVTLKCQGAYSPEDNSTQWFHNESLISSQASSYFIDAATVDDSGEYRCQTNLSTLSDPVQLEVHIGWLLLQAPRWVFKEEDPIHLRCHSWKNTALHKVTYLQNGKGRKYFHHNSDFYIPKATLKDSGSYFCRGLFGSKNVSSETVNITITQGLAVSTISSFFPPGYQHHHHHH

B1: E27 IgG1 variant K334(353)G (antibody)
heavy: not shown
light: DIQLTQSPSSLSASVGDRVTITCRASKPVDGEGDSYLNWYQQKPGKAPKLLIYAASYLESGVPSRFSGSGSGTDFTLTISSLQPEDFATYYCQQSHEDPYTFGQGTKVEIKRTVAAPSVFIFPPSDEQLKSGTASVVCLLNNFYPREAKVQWKVDNALQSGNSQESVTEQDSKDSTYSLSSTLTLSKADYEKHKVYACEVTHQGLSSPVTKSFNRGEC
notes: also called IG2 179
Take B1: the entries for the “ratio to native IgG1” value in experiment [1], in experiment [2] and in experiment [3] were 0.76, 0.88 and 0.6, respectively.

B2: E27 IgG1 variant D265(278)N (antibody)
heavy: not shown
light: DIQLTQSPSSLSASVGDRVTITCRASKPVDGEGDSYLNWYQQKPGKAPKLLIYAASYLESGVPSRFSGSGSGTDFTLTISSLQPEDFATYYCQQSHEDPYTFGQGTKVEIKRTVAAPSVFIFPPSDEQLKSGTASVVCLLNNFYPREAKVQWKVDNALQSGNSQESVTEQDSKDSTYSLSSTLTLSKADYEKHKVYACEVTHQGLSSPVTKSFNRGEC
B2: the “ratio to native IgG1” value in experiment [1] turned out to be 0.02; in experiment [2], 0.02; in experiment [3], 0.03.

B3: E27 IgG1 variant E269(282)D (antibody)
heavy: not shown
light: DIQLTQSPSSLSASVGDRVTITCRASKPVDGEGDSYLNWYQQKPGKAPKLLIYAASYLESGVPSRFSGSGSGTDFTLTISSLQPEDFATYYCQQSHEDPYTFGQGTKVEIKRTVAAPSVFIFPPSDEQLKSGTASVVCLLNNFYPREAKVQWKVDNALQSGNSQESVTEQDSKDSTYSLSSTLTLSKADYEKHKVYACEVTHQGLSSPVTKSFNRGEC
Take B3: the “ratio to native IgG1” value stood at 0.89 in experiment [1], 1.13 in experiment [2] and 0.73 in experiment [3].

B4: E27 IgG1 variant D280(295)N (antibody)
heavy: not shown
light: DIQLTQSPSSLSASVGDRVTITCRASKPVDGEGDSYLNWYQQKPGKAPKLLIYAASYLESGVPSRFSGSGSGTDFTLTISSLQPEDFATYYCQQSHEDPYTFGQGTKVEIKRTVAAPSVFIFPPSDEQLKSGTASVVCLLNNFYPREAKVQWKVDNALQSGNSQESVTEQDSKDSTYSLSSTLTLSKADYEKHKVYACEVTHQGLSSPVTKSFNRGEC
notes: also called IG2 79
B4: the “ratio to native IgG1” value in experiment [1] amounted to 1.07; in experiment [2] it was 1.16; in experiment [3] it was 1.22.

B5: E27 IgG1 variant D249(262)E (antibody)
heavy: not shown
light: DIQLTQSPSSLSASVGDRVTITCRASKPVDGEGDSYLNWYQQKPGKAPKLLIYAASYLESGVPSRFSGSGSGTDFTLTISSLQPEDFATYYCQQSHEDPYTFGQGTKVEIKRTVAAPSVFIFPPSDEQLKSGTASVVCLLNNFYPREAKVQWKVDNALQSGNSQESVTEQDSKDSTYSLSSTLTLSKADYEKHKVYACEVTHQGLSSPVTKSFNRGEC
notes: also called IG2 222
For the molecule B5, the entries for the “ratio to native IgG1” value in experiment [1], in experiment [2] and in experiment [3] were 0.97, 0.84 and 0.99, respectively.

B6: E27 IgG1 variant A330(349)K (antibody)
heavy: not shown
light: DIQLTQSPSSLSASVGDRVTITCRASKPVDGEGDSYLNWYQQKPGKAPKLLIYAASYLESGVPSRFSGSGSGTDFTLTISSLQPEDFATYYCQQSHEDPYTFGQGTKVEIKRTVAAPSVFIFPPSDEQLKSGTASVVCLLNNFYPREAKVQWKVDNALQSGNSQESVTEQDSKDSTYSLSSTLTLSKADYEKHKVYACEVTHQGLSSPVTKSFNRGEC
notes: also called IG2 197
For B6, the “ratio to native IgG1” value stood at 1.28 in experiment [1], 1.28 in experiment [2] and 1.25 in experiment [3].

B7: E27 IgG1 variant A330(349)D (antibody)
heavy: not shown
light: DIQLTQSPSSLSASVGDRVTITCRASKPVDGEGDSYLNWYQQKPGKAPKLLIYAASYLESGVPSRFSGSGSGTDFTLTISSLQPEDFATYYCQQSHEDPYTFGQGTKVEIKRTVAAPSVFIFPPSDEQLKSGTASVVCLLNNFYPREAKVQWKVDNALQSGNSQESVTEQDSKDSTYSLSSTLTLSKADYEKHKVYACEVTHQGLSSPVTKSFNRGEC
For the molecule B7, the figures for the “ratio to native IgG1” value in experiment [1], in experiment [2] and in experiment [3] were 0.18, 0.07 and 0.08, respectively.

B8: E27 IgG1 variant D265(278)E (antibody)
heavy: not shown
light: DIQLTQSPSSLSASVGDRVTITCRASKPVDGEGDSYLNWYQQKPGKAPKLLIYAASYLESGVPSRFSGSGSGTDFTLTISSLQPEDFATYYCQQSHEDPYTFGQGTKVEIKRTVAAPSVFIFPPSDEQLKSGTASVVCLLNNFYPREAKVQWKVDNALQSGNSQESVTEQDSKDSTYSLSSTLTLSKADYEKHKVYACEVTHQGLSSPVTKSFNRGEC
notes: also called IG2 158
Regarding B8, the “ratio to native IgG1” value in experiment [1] amounted to 0.11; in experiment [2] it was 0.02; in experiment [3], 0.03.

B9: E27 IgG1 variant D270(283)N (antibody)
heavy: not shown
light: DIQLTQSPSSLSASVGDRVTITCRASKPVDGEGDSYLNWYQQKPGKAPKLLIYAASYLESGVPSRFSGSGSGTDFTLTISSLQPEDFATYYCQQSHEDPYTFGQGTKVEIKRTVAAPSVFIFPPSDEQLKSGTASVVCLLNNFYPREAKVQWKVDNALQSGNSQESVTEQDSKDSTYSLSSTLTLSKADYEKHKVYACEVTHQGLSSPVTKSFNRGEC
notes: also called IG2 92
For B9, the “ratio to native IgG1” value in experiment [1] is 0.03; in experiment [2], 0.04; in experiment [3], 0.05.

B10: E27 IgG1 variant D280(295)S (antibody)
heavy: not shown
light: DIQLTQSPSSLSASVGDRVTITCRASKPVDGEGDSYLNWYQQKPGKAPKLLIYAASYLESGVPSRFSGSGSGTDFTLTISSLQPEDFATYYCQQSHEDPYTFGQGTKVEIKRTVAAPSVFIFPPSDEQLKSGTASVVCLLNNFYPREAKVQWKVDNALQSGNSQESVTEQDSKDSTYSLSSTLTLSKADYEKHKVYACEVTHQGLSSPVTKSFNRGEC
Turning to B10, the “ratio to native IgG1” value amounted to 1.07 in experiment [1], 1.09 in experiment [2] and 1.04 in experiment [3].

B11: E27 IgG1 variant A327(346)S (antibody)
heavy: not shown
light: DIQLTQSPSSLSASVGDRVTITCRASKPVDGEGDSYLNWYQQKPGKAPKLLIYAASYLESGVPSRFSGSGSGTDFTLTISSLQPEDFATYYCQQSHEDPYTFGQGTKVEIKRTVAAPSVFIFPPSDEQLKSGTASVVCLLNNFYPREAKVQWKVDNALQSGNSQESVTEQDSKDSTYSLSSTLTLSKADYEKHKVYACEVTHQGLSSPVTKSFNRGEC
As for B11, the “ratio to native IgG1” value was determined as 0.23 in experiment [1], 0.06 in experiment [2] and 0.22 in experiment [3].

B12: E27 IgG1 variant E333(352)K (antibody)
heavy: not shown
light: DIQLTQSPSSLSASVGDRVTITCRASKPVDGEGDSYLNWYQQKPGKAPKLLIYAASYLESGVPSRFSGSGSGTDFTLTISSLQPEDFATYYCQQSHEDPYTFGQGTKVEIKRTVAAPSVFIFPPSDEQLKSGTASVVCLLNNFYPREAKVQWKVDNALQSGNSQESVTEQDSKDSTYSLSSTLTLSKADYEKHKVYACEVTHQGLSSPVTKSFNRGEC
On to B12, for which the “ratio to native IgG1” value in experiment [2] worked out at 0.85.

B13: E27 IgG1 variant D270(283)E (antibody)
heavy: not shown
light: DIQLTQSPSSLSASVGDRVTITCRASKPVDGEGDSYLNWYQQKPGKAPKLLIYAASYLESGVPSRFSGSGSGTDFTLTISSLQPEDFATYYCQQSHEDPYTFGQGTKVEIKRTVAAPSVFIFPPSDEQLKSGTASVVCLLNNFYPREAKVQWKVDNALQSGNSQESVTEQDSKDSTYSLSSTLTLSKADYEKHKVYACEVTHQGLSSPVTKSFNRGEC
notes: also called IG2 93
As for B13, the entries for the “ratio to native IgG1” value in experiment [1], in experiment [2] and in experiment [3] were 0.08, 0.9 and 0.06, respectively.

B14: E27 IgG1 variant E333(352)S (antibody)
heavy: not shown
light: DIQLTQSPSSLSASVGDRVTITCRASKPVDGEGDSYLNWYQQKPGKAPKLLIYAASYLESGVPSRFSGSGSGTDFTLTISSLQPEDFATYYCQQSHEDPYTFGQGTKVEIKRTVAAPSVFIFPPSDEQLKSGTASVVCLLNNFYPREAKVQWKVDNALQSGNSQESVTEQDSKDSTYSLSSTLTLSKADYEKHKVYACEVTHQGLSSPVTKSFNRGEC
notes: also called IG2 143
In the case of B14, in experiment [2], the “ratio to native IgG1” value is 0.94.

B15: E27 IgG1 variant S267(280)T (antibody)
heavy: not shown
light: DIQLTQSPSSLSASVGDRVTITCRASKPVDGEGDSYLNWYQQKPGKAPKLLIYAASYLESGVPSRFSGSGSGTDFTLTISSLQPEDFATYYCQQSHEDPYTFGQGTKVEIKRTVAAPSVFIFPPSDEQLKSGTASVVCLLNNFYPREAKVQWKVDNALQSGNSQESVTEQDSKDSTYSLSSTLTLSKADYEKHKVYACEVTHQGLSSPVTKSFNRGEC
For B15, the “ratio to native IgG1” value in experiment [1] turned out to be 0.42; in experiment [3], 0.45.

B16: E27 IgG1 variant E333(352)D (antibody)
heavy: not shown
light: DIQLTQSPSSLSASVGDRVTITCRASKPVDGEGDSYLNWYQQKPGKAPKLLIYAASYLESGVPSRFSGSGSGTDFTLTISSLQPEDFATYYCQQSHEDPYTFGQGTKVEIKRTVAAPSVFIFPPSDEQLKSGTASVVCLLNNFYPREAKVQWKVDNALQSGNSQESVTEQDSKDSTYSLSSTLTLSKADYEKHKVYACEVTHQGLSSPVTKSFNRGEC
Take B16: the “ratio to native IgG1” value in experiment [2] was determined as 1.26.

B17: E27 IgG1 variant A327(346)G (antibody)
heavy: not shown
light: DIQLTQSPSSLSASVGDRVTITCRASKPVDGEGDSYLNWYQQKPGKAPKLLIYAASYLESGVPSRFSGSGSGTDFTLTISSLQPEDFATYYCQQSHEDPYTFGQGTKVEIKRTVAAPSVFIFPPSDEQLKSGTASVVCLLNNFYPREAKVQWKVDNALQSGNSQESVTEQDSKDSTYSLSSTLTLSKADYEKHKVYACEVTHQGLSSPVTKSFNRGEC
B17: the “ratio to native IgG1” value in experiment [1] turned out to be 0.92; in experiment [2], 0.36; in experiment [3], 0.83.
